Results taken from article PMC11643329, “DNA sequence-induced solid phase transition as a solution to the genome folding paradox” (Research Square, 2024).

T1: full length Halo-Ldb1 (Ldb1 1-411) (UniProt P70662 1-411, Halo-tag ligand Coumarin dye on the Halo tag (incubated at 1:10 molar equivalent))
T1 construct: Construct order as printed: 6x His - Halo tag - Ldb1 1-411 - stop codon in pET-duet; The EMSA legend says only 'full-length Ldb1'; This is the only full-length Ldb1 construct that the methods describe; also called full length Ldb1; FL Halo-Ldb1; source: E. coli BL21, purified (HisTrap, dialysis); not shown: Halo tag, N-terminal, kept
T1 sequence (looked up): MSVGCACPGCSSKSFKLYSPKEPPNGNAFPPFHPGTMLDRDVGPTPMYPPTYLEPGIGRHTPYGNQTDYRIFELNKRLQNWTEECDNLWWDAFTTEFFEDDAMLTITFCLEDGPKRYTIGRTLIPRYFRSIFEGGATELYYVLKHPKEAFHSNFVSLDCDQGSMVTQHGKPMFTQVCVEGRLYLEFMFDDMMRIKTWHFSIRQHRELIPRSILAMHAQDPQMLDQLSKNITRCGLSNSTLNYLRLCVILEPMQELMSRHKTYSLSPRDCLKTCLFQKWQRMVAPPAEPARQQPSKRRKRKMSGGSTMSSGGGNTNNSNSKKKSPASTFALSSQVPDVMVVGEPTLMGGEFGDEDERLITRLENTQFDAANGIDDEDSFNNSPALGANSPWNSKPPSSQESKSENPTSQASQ

B1: truncated Sumo-Lhx2 (Lhx2 1-350, lacks the C-terminal intrinsically disordered region) (domain or fragment, UniProt Q9Z0S2 1-350, looked up)
chain: MLFHSLSGPEVHGVIDEMDRRAKSEAPAISSAIDRGDTETTMPSISSDRAALCAGCGGKISDRYYLLAVDKQWHMRCLKCCECKLNLESELTCFSKDGSIYCKEDYYRRFSVQRCARCHLGISASEMVMRARDLVYHLNCFTCTTCNKMLTTGDHFGMKDSLVYCRLHFEALLQGEYPAHFNHADVAAAAAAAAAAKSAGLGSAGANPLGLPYYNGVGTVQKGRPRKRKSPGPGADLAAYNAALSCNENDAEHLDRDQPYPSSQKTKRMRTSFKHHQLRTMKSYFAINHNPDAKDLKQLAQKTGLTKRVLQVWFQNARAKFRRNLLRQENTGVDKTSDATLQTGTPSGPA
notes: Lhx2, LIM-homeodomain transcription factor, residues 1-350 followed by a stop codon; Construct order as printed: 6xHis - Sumo - strep II - Lhx2 in pET28b; also called truncated Lhx2; source: E. coli BL21, purified (HisTrap, HiTrap Heparin, dialysis); not shown: Sumo, N-terminal, kept
B2: Ldb1 Lim interaction domain (Ldb1-LID), Sumo-Ldb1 320-375 (domain or fragment, UniProt P70662 320-375, looked up)
chain: KKKSPASTFALSSQVPDVMVVGEPTLMGGEFGDEDERLITRLENTQFDAANGIDDE
notes: Construct order as printed: 6x His - Sumo - Ldb1 320-375 - stop codon in pET28; also called truncated Ldb1 protein; Sumo-Ldb1-LID domain; source: E. coli BL21, purified (HisTrap, Superdex 75 size exclusion); not shown: Sumo, N-terminal, kept

Tests used:
[1] = target: T1, full length Halo-Ldb1 (Ldb1 1-411); test: native gel or EMSA; purified proteins mixed with 2000 fmol ATTO-488 labelled composite motif DNA probe; Ldb1 added to DNA-bound Lhx2 and/or Ebf1; 10 mM HEPES, 150 mM NaCl, 5% glycerol, 0.5% NP-40, 1 mg/mL BSA, 0.1 mg/mL poly dI-dC; 30 minutes at 4C; 6% native gel; settings: both partners purified
[2] = target: B1; test: as above; settings: both partners purified

| Binder | binding result [1] | binding result [2] |
| --- | --- | --- |
| B1 | binds | – |
| B2 | – | binds |
